Legend:
[1] = target: BSA (Fraction V, Sigma), P02769
[2] = target: T1, hyphal wall protein 1 (Hwp1) on C. albicans germ tube surfaces, P46593
T1 chain: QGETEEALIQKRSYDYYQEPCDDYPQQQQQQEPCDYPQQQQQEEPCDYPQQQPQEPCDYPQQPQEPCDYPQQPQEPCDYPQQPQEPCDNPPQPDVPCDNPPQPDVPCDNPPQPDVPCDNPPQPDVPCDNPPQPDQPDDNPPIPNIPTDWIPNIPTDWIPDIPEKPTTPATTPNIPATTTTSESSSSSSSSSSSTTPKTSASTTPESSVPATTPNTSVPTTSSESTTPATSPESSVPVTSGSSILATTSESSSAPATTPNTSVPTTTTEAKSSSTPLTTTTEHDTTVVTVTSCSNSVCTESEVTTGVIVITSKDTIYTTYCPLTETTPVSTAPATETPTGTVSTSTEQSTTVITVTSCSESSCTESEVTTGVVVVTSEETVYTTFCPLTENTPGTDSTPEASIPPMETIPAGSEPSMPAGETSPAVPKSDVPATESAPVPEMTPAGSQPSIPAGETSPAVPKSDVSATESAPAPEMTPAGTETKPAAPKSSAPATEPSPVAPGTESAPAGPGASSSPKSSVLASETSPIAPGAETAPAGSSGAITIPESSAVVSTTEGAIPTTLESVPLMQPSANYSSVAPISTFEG

Sequence of BSA (Fraction V, Sigma), P02769 (P02769 25-607): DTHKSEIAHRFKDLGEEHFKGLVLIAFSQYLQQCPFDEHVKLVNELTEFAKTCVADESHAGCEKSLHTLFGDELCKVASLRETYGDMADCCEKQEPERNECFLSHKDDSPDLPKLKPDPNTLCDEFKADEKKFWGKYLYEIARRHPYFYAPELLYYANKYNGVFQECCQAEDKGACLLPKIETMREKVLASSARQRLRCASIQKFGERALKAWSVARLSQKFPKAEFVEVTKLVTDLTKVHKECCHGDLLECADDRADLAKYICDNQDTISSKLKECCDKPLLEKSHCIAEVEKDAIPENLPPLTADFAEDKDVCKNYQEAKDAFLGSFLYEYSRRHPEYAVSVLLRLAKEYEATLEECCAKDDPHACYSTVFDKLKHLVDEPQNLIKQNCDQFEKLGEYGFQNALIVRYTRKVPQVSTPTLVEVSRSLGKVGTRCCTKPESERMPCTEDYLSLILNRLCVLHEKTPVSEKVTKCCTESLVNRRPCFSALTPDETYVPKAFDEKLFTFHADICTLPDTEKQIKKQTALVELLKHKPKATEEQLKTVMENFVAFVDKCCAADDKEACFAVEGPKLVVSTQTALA

B1: guinea pig liver transglutaminase (protein)
chain: AEDLILERCDLQLEVNGRDHRTADLCRERLVLRRGQPFWLTLHFEGRGYEAGVDTLTFNAVTGPDPSEEAGTMARFSLSSAVEGGTWSASAVDQQDSTVSLLLSTPADAPIGLYRLSLEASTGYQGSSFVLGHFILLYNPRCPADAVYMDSDQERQEYVLTQQGFIYQGSAKFINGIPWNFGQFEDGILDICLMLLDTNPKFLKNAGQDCSRRSRPVYVGRVVSAMVNCNDDQGVLQGRWDNNYSDGVSPMSWIGSVDILRRWKDYGCQRVKYGQCWVFAAVACTVLRCLGIPTRVVTNFNSAHDQNSNLLIEYFRNESGEIEGNKSEMIWNFHCWVESWMTRPDLEPGYEGWQALDPTPQEKSEGTYCCGPVPVRAIKEGHLNVKYDAPFVFAEVNADVVNWIRQKDGSLRKSINHLVVGLKISTKSVGRDEREDITHTYKYPEGSEEEREAFVRANHLNKLATKEEAQEETGVAMRIRVGQNMTMGSDFDIFAYITNGTAESHECQLLLCARIVSYNGVLGPVCSTNDLLNLTLDPFSENSIPLHILYEKYGDYLTESNLIKVRGLLIEPAANSYVLAERDIYLENPEIKIRVLGEPKQNRKLIAEVSLKNPLPVPLLGCIFTVEGAGLTKDQKSVEVPDPVEAGEQAKVRVDLLPTEVGLHKLVVNFECDKLKAVKGYRNVIIGPA
[14C]-putrescine cross-linking detected by SDS-PAGE and fluorography [1]: no evidence of cross-linking of [^14C]-putrescine to transglutaminase itself or to BSA was seen | transglutaminase-mediated incorporation of [14C]-putrescine (TCA-precipitable counts) [1]: BSA served as a negative control | transglutaminase-mediated incorporation of [14C]-putrescine (TCA-precipitable counts) (N,N' dimethylcasein): Incorporation of [^14C]-putrescine by rHwp1?C37 was equivalent to that of casein, a known substrate of transglutaminases | transglutaminase-mediated incorporation of a biotinylated lysine analogue into germ tubes (avidin-FITC fluorescence) [2]: Transglutaminase-mediated incorporation of a lysine analogue in the homozygous hwp1/hwp1 mutant strain CAH7-1A (FIG. 2E) was nearly absent as shown by the marked decrease in fluorescence compared to SC5314, CAI4, and CAH7 | [14C]-putrescine cross-linking detected by SDS-PAGE and fluorography (rHwp1ΔC37, P46593): [^14C]-putrescine cross-linking to rHwp1?C37 detected by SDS-PAGE and fluorography required active transglutaminase | transglutaminase-mediated incorporation of [14C]-putrescine (TCA-precipitable counts) (rHwp1ΔC37, P46593): Incorporation of [^14C]-putrescine by rHwp1?C37 was equivalent to that of casein, a known substrate of transglutaminases

Source: US20020122804
